# Patent publication US20230002480A1
# What was measured:
# Assay in all cases: cell-based or functional assay
# [1] = biological target: HIV-1 Env of pseudovirus REJO4541.67 (HIV-1)
# [2] = biological target: HIV-1 Env of pseudovirus 6540.v4.c1 (HIV-1)
# [3] = biological target: HIV-1 Env of pseudovirus T255-34 (HIV-1)
# [4] = biological target: HIV-1 Env of pseudovirus X1193_c1 (HIV-1)
# [5] = biological target: HIV-1 Env of pseudovirus 89-F1_2_25 (HIV-1)
# [6] = biological target: HIV-1 Env of pseudovirus 6244_13_B5_4576 (HIV-1)
# [7] = biological target: HIV-1 Env of pseudovirus T257-31 (HIV-1)
# [8] = biological target: HIV-1 Env of pseudovirus CNE30 (HIV-1)
# [9] = biological target: HIV-1 Env of pseudovirus CNE17 (HIV-1)
# [10] = biological target: HIV-1 Env of pseudovirus CNE21 (HIV-1)
# [11] = biological target: HIV-1 Env of pseudovirus 1012_11_TC21_3257 (HIV-1)
# [12] = biological target: HIV-1 Env of pseudovirus ZM214M.PL15 (HIV-1)
# [13] = biological target: HIV-1 Env of pseudovirus 1394C9G1(Rev-) (HIV-1)
# [14] = biological target: HIV-1 Env of pseudovirus A07412M1.vrc12 (HIV-1)
# [15] = biological target: HIV-1 Env of pseudovirus 6041.v3.c23 (HIV-1)
# [16] = biological target: HIV-1 Env of pseudovirus 3103.v3.c10 (HIV-1)
# [17] = biological target: HIV-1 Env of pseudovirus SC05_8C11_2344 (HIV-1)
# [18] = biological target: HIV-1 Env of pseudovirus CNE5 (HIV-1)
# [19] = biological target: HIV-1 Env of pseudovirus Du422.1 (HIV-1)
# [20] = biological target: HIV-1 Env of pseudovirus TRO.11 (HIV-1)
# [21] = biological target: HIV-1 Env of pseudovirus BJOX028000.10.3 (HIV-1)
# [22] = biological target: HIV-1 Env of pseudovirus 620345.c01 (HIV-1)
# [23] = biological target: HIV-1 Env of pseudovirus R3265.c06 (HIV-1)
# [24] = biological target: HIV-1 Env of pseudovirus THRO4156.18 (HIV-1)
# [25] = biological target: HIV-1 Env of pseudovirus Du172.17 (HIV-1)
# [26] = biological target: HIV-1 Env of pseudovirus X1632_S2_B10 (HIV-1)
# [27] = biological target: HIV-1 Env of pseudovirus QH0692.42 (HIV-1)
# [28] = biological target: HIV-1 Env of pseudovirus HIV-001428-2.42 (HIV-1)
# [29] = biological target: HIV-1 Env of pseudovirus Q842.d12 (HIV-1)
# [30] = biological target: HIV-1 Env of pseudovirus R1166.c01 (HIV-1)
# [31] = biological target: HIV-1 Env of pseudovirus 1006_11_C3_1601 (HIV-1)
# [32] = biological target: HIV-1 Env of pseudovirus 211-9 (HIV-1)
# [33] = biological target: HIV-1 Env of pseudovirus 3016.v5.c45 (HIV-1)
# [34] = biological target: HIV-1 Env of pseudovirus 7030102001E5(Rev-) (HIV-1)
# [35] = biological target: HIV-1 Env of pseudovirus HIV-16845-2.22 (HIV-1)
# [36] = biological target: HIV-1 Env of pseudovirus Ce2060_G9 (HIV-1)
substance,measurement,setting,value
3BNC117 (antibody),neutralization IC50,[1],0.01 µg/mL
same,neutralization IC80,[1],0.05 µg/mL
same,"IC50, titer in TZM.bl cells",[2],> 50 µg/mL
same,"IC80, titer in TZM.bl cells",[2],> 50 µg/mL
same,"IC50, titer in TZM.bl cells",[3],0.02 µg/mL
same,"IC80, titer in TZM.bl cells",[3],0.14 µg/mL
same,"IC50, titer in TZM.bl cells",[4],0.06 µg/mL
same,"IC80, titer in TZM.bl cells",[4],0.25 µg/mL
same,"IC50, titer in TZM.bl cells",[5],> 50 µg/mL
same,"IC80, titer in TZM.bl cells",[5],> 50 µg/mL
same,neutralization IC50,[6],0.04 µg/mL
same,neutralization IC80,[6],0.15 µg/mL
same,neutralization IC50,[7],0.06 µg/mL
same,neutralization IC80,[7],0.37 µg/mL
same,neutralization IC50,[8],0.26 µg/mL
same,neutralization IC80,[8],0.85 µg/mL
same,neutralization IC50,[9],5.76 µg/mL
same,neutralization IC80,[9],43 µg/mL
same,neutralization IC50,[10],45.4 µg/mL
same,neutralization IC80,[10],> 50 µg/mL
same,neutralization IC50,[11],0.02 µg/mL
same,neutralization IC80,[11],0.07 µg/mL
same,neutralization IC50,[12],0.06 µg/mL
same,neutralization IC80,[12],0.52 µg/mL
same,neutralization IC50,[13],> 50 µg/mL
same,neutralization IC80,[13],> 50 µg/mL
same,"IC50, titer in TZM.bl cells",[14],0.02 µg/mL
same,"IC80, titer in TZM.bl cells",[14],0.1 µg/mL
same,"IC50, titer in TZM.bl cells",[15],0.01 µg/mL
same,"IC80, titer in TZM.bl cells",[15],0.07 µg/mL
same,"IC50, titer in TZM.bl cells",[16],0.22 µg/mL
same,"IC80, titer in TZM.bl cells",[16],0.85 µg/mL
same,neutralization IC50,[17],0.15 µg/mL
same,neutralization IC80,[17],0.51 µg/mL
same,"IC50, titer in TZM.bl cells",[18],0.28 µg/mL
same,"IC80, titer in TZM.bl cells",[18],1.28 µg/mL
same,neutralization IC50,[19],> 50 µg/mL
same,neutralization IC80,[19],> 50 µg/mL
same,neutralization IC50,[20],< 0.09 µg/mL
same,neutralization IC80,[20],< 0.09 µg/mL
same,"IC50, titer in TZM.bl cells",[21],0.01 µg/mL
same,"IC80, titer in TZM.bl cells",[21],0.05 µg/mL
same,"IC50, titer in TZM.bl cells",[22],> 15 µg/mL
same,"IC80, titer in TZM.bl cells",[22],> 15 µg/mL
same,"IC50, titer in TZM.bl cells",[23],0.48 µg/mL
same,"IC80, titer in TZM.bl cells",[23],13 µg/mL
same,neutralization IC50,[24],1.76 µg/mL
same,neutralization IC80,[24],10.1 µg/mL
same,neutralization IC50,[25],1.19 µg/mL
same,neutralization IC80,[25],8.9 µg/mL
same,"IC50, titer in TZM.bl cells",[26],15.7 µg/mL
same,"IC80, titer in TZM.bl cells",[26],> 50 µg/mL
same,neutralization IC50,[27],0.13 µg/mL
same,neutralization IC80,[27],0.49 µg/mL
same,neutralization IC50,[28],0.003 µg/mL
same,neutralization IC80,[28],0.02 µg/mL
same,neutralization IC50,[29],< 0.01 µg/mL
same,neutralization IC80,[29],0.01 µg/mL
same,"IC50, titer in TZM.bl cells",[30],0.17 µg/mL
same,"IC80, titer in TZM.bl cells",[30],0.64 µg/mL
same,neutralization IC50,[31],0.03 µg/mL
same,neutralization IC80,[31],0.1 µg/mL
same,"IC50, titer in TZM.bl cells",[32],0.35 µg/mL
same,"IC80, titer in TZM.bl cells",[32],1.28 µg/mL
same,"IC50, titer in TZM.bl cells",[33],1.38 µg/mL
same,"IC80, titer in TZM.bl cells",[33],> 30 µg/mL
same,neutralization IC50,[34],0.29 µg/mL
same,neutralization IC80,[34],1.44 µg/mL
same,neutralization IC50,[35],27.5 µg/mL
same,neutralization IC80,[35],> 50 µg/mL
same,neutralization IC50,[36],0.24 µg/mL
same,neutralization IC80,[36],0.81 µg/mL
